The text below walks through data of paper PMC12145424, “Structural insights into tRNA recognition of the human FTSJ1-THADA complex” (Communications Biology, 2025).

The experiment addresses T1, Human THADA (FLAG- and streptavidin-binding-sequence-tagged, co-expressed with FTSJ1) (human, UniProt Q6YHU6 1-1953).
T1 construct: THADA, human; gene PCR-amplified and cloned into a modified pcDNA3.4 vector; no TEV cleavage step is described; also called Trm732 (yeast name); not shown: FLAG, N-terminal, kept
Nature of the experiment: SEC; FTSJ1 and THADA co-expressed in HEK293F, purified on anti-FLAG beads, then HiLoad 16/600 Superdex 200pg in 20 mM Tris-HCl pH 7.5, 150 mM NaCl, 2 mM DTT; fractions analysed by SDS-PAGE. As to conditions: both partners purified. A general note: In gel filtration, larger molecules generally elute earlier.

T1 sequence (Q6YHU6 whole entry): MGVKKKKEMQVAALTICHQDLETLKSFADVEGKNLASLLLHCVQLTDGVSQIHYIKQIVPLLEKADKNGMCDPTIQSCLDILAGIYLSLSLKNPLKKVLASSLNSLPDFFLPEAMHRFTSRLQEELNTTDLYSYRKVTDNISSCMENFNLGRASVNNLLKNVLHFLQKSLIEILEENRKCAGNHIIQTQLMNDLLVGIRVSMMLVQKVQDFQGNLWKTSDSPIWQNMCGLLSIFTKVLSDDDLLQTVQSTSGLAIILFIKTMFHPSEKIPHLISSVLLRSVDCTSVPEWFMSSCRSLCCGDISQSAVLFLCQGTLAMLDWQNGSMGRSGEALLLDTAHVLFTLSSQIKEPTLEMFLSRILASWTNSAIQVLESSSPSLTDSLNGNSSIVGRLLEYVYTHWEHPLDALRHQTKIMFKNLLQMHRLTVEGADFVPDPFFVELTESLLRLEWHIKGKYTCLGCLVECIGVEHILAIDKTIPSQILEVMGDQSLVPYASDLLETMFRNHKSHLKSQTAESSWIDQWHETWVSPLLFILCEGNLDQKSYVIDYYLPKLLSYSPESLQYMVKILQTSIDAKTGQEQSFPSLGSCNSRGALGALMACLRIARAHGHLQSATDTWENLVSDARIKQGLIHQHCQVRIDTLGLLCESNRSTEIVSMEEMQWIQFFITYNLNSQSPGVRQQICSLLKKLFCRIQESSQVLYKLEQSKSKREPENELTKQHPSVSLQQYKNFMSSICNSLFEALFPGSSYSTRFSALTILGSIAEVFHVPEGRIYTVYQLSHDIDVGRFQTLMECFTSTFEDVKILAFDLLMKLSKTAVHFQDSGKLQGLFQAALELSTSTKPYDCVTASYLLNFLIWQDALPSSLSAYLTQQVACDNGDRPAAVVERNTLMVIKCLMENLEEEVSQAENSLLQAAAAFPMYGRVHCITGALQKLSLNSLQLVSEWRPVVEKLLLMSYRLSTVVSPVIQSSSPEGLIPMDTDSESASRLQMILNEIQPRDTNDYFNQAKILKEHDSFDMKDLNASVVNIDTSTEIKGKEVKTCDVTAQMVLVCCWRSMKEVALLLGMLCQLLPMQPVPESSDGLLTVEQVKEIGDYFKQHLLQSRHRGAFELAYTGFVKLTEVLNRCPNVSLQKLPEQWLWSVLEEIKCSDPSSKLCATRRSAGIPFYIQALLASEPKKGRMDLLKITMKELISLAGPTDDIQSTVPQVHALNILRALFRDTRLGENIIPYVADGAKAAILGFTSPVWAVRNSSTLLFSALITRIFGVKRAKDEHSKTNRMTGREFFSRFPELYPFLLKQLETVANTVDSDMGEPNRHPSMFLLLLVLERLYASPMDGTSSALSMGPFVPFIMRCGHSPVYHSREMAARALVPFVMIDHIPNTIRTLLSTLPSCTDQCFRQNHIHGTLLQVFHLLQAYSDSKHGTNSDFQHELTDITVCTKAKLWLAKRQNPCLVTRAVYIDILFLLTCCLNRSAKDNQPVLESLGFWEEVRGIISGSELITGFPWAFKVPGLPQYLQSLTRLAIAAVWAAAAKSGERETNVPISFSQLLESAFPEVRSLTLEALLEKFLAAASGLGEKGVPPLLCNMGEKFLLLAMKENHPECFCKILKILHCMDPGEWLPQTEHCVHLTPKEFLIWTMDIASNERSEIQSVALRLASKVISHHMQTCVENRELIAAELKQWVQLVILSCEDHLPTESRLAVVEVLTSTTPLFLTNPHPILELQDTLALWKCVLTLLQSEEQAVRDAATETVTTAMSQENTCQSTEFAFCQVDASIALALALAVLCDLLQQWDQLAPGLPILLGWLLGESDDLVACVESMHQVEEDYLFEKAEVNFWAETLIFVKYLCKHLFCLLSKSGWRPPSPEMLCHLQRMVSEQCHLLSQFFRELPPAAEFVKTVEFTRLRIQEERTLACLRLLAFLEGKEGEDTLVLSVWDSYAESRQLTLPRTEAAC

B1: Human FTSJ1 (FLAG-tagged, co-expressed with THADA) (enzyme)
chain: MGRTSKDKRDVYYRLAKENGWRARSAFKLLQLDKEFQLFQGVTRAVDLCAAPGSWSQVLSQKIGGQGSGHVVAVDLQAMAPLPGVVQIQGDITQLSTAKEIIQHFKGCPADLVVCDGAPDVTGLHDVDEYMQAQLLLAALNIATHVLKPGGCFVAKIFRGRDVTLLYSQLQVFFSSVLCAKPRSSRNSSIEAFAVCQGYDPPEGFIPDLSKPLLDHSYDPDFNQLDGPTRIIVPFVTCGDLSSYDSDRSYPLDLEGGSEYKYTPPTQPPISPPYQEACTLKRKGQLAKEIRPQDCPISRVDTFPQPLAAPQCHTLLAPEMEDNEMSCSP
notes: FTSJ1, human; gene PCR-amplified and cloned into a modified pcDNA3.4 vector; no TEV cleavage step is described in the purification; also called Trm7 (yeast name); not shown: FLAG, N-terminal, kept
Consider B1, for which the binding result was “binds”.
